Changes are numbered by the printed parent chain. Several values for one entry are separate records, joined by “and”; a condition that tells them apart may be missing. Equal entries are not always repeated.
B1: anti-CCR8 mAb 1-17 (antibody, V domains shown)
VH: QVQLQQPGSELVRPGASVKLSCKASGYTFTSYWMHWVKQRPGQGLEWIGNIWPGSASTNYDEKFKNKATLTVDTSSSTAYMQLSSLTSEDSAVYYCIRGGKGAMDYWSQGTSVTVSS
VL: DVVMTQIPLSLPVSLGDQASISCRSSQSLENSYGNTYLNWYLQKPGQSPQLLIYRVSNRFSGVLDRFSGSGSGTDFTLKISRVEAEDLGVYFCLQVTHVPPTFGAGTKLELK
notes: Murine hybridoma mAb
B2: anti-CCR8 mAb 1-10 (antibody, V domains shown)
VH: EVQLQQSGPELVKPGASVKISCKTSGYTFTEYTIHWVKQSHGESLEWVGGINPNNGNTRYDQKFKGKATLTIDKSSSPAYMELRSLTSEDSAVYYCARVARSSGSGPYAMDYWGQGTSVTVSS
VL: DVVMTQTPLSLPVSLGDQASISCRCTQSLLHTNGDTYLHWYLQKPGQSPKLLIYKVSNRFSGVPDRFSGSGSGTDFTLKISRVEAEDLGVYFCSQSTHVPYTFGGGTKLEIK
notes: Murine hybridoma mAb
B3: anti-CCR8 mAb 1-11 (antibody, V domains shown)
VH: QVQLQQPGAELVKPGASVKMSCKATGYTFTGYNMHWVKQTPGQGLEWIGAISPGKGDTSYNLKFKGKATLTTDKSSSTAYMQLSSLTSADSAVYYCARSGGTPFAYWGQGTLVTVSA
VL: B2 VL with C25S, T26S, L30V, T32S, H39Y, S81N
notes: Murine hybridoma mAb
B4: anti-CCR8 mAb 1-16 (antibody, V domains shown)
VH: EVQLQQSGPELVKPGASVKISCKASVYSFTGSYMHWVKQSHVKSLEWIGRINPYNGATSYNQNFKDKASLTVDKSSSTAYMELHSLTSEDSAVYYCATTLLRLLDYWGQGTTLTVSS
VL: DIVMTQAAFSNPVTLGTSASISCRSSKSLLHSNGITYLYWYLQKPGQSPQLLIYQMSNLASGVPDRFSSSGSGTDFTLRISRVEAEDVGVYYCAQNLELPWTFGGGTKLEIK
notes: Murine hybridoma mAb
B5: anti-CCR8 mAb 1-33 (antibody, human IgG1, kappa)
heavy: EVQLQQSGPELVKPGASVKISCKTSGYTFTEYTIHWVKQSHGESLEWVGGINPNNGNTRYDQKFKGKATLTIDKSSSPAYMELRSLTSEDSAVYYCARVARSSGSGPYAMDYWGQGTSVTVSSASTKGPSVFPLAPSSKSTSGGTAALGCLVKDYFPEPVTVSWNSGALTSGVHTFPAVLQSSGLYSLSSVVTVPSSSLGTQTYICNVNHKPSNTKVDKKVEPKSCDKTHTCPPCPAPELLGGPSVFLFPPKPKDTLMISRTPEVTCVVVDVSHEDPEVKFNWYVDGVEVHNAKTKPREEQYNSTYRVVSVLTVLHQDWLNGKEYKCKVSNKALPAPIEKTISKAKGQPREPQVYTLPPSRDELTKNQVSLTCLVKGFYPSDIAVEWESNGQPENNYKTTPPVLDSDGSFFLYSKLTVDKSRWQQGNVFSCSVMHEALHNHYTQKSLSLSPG
light: DVVMTQTPLSLPVSLGDQASISCRCTQSLLHTNGDTYLHWYLQKPGQSPKLLIYKVSNRFSGVPDRFSGSGSGTDFTLKISRVEAEDLGVYFCSQSTHVPYTFGGGTKLEIKRTVAAPSVFIFPPSDEQLKSGTASVVCLLNNFYPREAKVQWKVDNALQSGNSQESVTEQDSKDSTYSLSSTLTLSKADYEKHKVYACEVTHQGLSSPVTKSFNRGEC
B6: anti-CCR8 mAb 1-35 (antibody, human IgG1, kappa)
heavy: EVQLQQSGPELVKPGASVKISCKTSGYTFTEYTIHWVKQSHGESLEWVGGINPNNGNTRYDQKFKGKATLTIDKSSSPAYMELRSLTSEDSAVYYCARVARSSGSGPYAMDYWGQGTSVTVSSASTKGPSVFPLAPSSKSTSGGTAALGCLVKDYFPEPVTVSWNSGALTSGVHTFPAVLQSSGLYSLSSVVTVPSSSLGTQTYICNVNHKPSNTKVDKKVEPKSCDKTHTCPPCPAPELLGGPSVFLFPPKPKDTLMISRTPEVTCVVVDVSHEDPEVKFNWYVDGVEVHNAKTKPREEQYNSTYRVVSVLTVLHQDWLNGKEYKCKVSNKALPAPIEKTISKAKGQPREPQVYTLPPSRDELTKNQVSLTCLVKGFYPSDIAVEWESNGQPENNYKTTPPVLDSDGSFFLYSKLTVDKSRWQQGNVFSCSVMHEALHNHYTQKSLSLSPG
light: B5 light
modifications: hypofucosylated (low fucosylated) Fc glycan
B7: anti-CCR8 mAb 1-45 (antibody, human IgG1, kappa)
heavy: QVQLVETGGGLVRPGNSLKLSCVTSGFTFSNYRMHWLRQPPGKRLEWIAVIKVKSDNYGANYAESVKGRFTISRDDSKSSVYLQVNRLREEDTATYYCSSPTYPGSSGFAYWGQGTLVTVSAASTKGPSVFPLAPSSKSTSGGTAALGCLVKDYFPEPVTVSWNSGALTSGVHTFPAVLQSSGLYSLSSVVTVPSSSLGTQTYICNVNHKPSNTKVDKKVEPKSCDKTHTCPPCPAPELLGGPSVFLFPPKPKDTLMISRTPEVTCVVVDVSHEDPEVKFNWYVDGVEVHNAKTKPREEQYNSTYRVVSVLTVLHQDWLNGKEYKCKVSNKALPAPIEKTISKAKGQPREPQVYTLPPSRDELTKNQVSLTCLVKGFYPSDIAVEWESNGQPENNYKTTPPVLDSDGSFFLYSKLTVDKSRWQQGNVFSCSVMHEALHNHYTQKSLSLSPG
light: DIQMTQTTSSLSASLGDRVTISCRASQDISNYLNWYQQKPDGTVKLLIYYTSRLHSGVPSRFSGSGSGTDYSLTISNLEQEDIATYFCQQGNKFPPTFGGGTKLEINRTVAAPSVFIFPPSDEQLKSGTASVVCLLNNFYPREAKVQWKVDNALQSGNSQESVTEQDSKDSTYSLSSTLTLSKADYEKHKVYACEVTHQGLSSPVTKSFNRGEC
B8: anti-CCR8 mAb 1-48 (antibody, human IgG1, kappa)
heavy: QVQLVETGGGLVRPGNSLKLSCVTSGFTFSNYRMHWLRQPPGKRLEWIAVIKVKSDNYGANYAESVKGRFTISRDDSKSSVYLQVNRLREEDTATYYCSSPTYPGSSGFAYWGQGTLVTVSAASTKGPSVFPLAPSSKSTSGGTAALGCLVKDYFPEPVTVSWNSGALTSGVHTFPAVLQSSGLYSLSSVVTVPSSSLGTQTYICNVNHKPSNTKVDKKVEPKSCDKTHTCPPCPAPELLGGPDVFLFPPKPKDTLMISRTPEVTCVVVDVSHEDPEVKFNWYVDGVEVHNAKTKPREEQYNSTYRVVSVLTVLHQDWLNGKEYKCKVSNKALPLPEEKTISKAKGQPREPQVYTLPPSRDELTKNQVSLTCLVKGFYPSDIAVEWESNGQPENNYKTTPPVLDSDGSFFLYSKLTVDKSRWQQGNVFSCSVMHEALHNHYTQKSLSLSPG
light: B7 light

Target: T1, human CCR8 (human, UniProt P51685 1-355)
Experiment: cell-based or functional assay

IC50 of CCL1-induced hCCR8 Gi2 signaling (BRET, HEK-293)	Binder
0.026 µg/mL and 0.172 nM	B1
0.046 µg/mL and 0.306 nM	B2
0.129 µg/mL and 0.86 nM	B3
0.092 µg/mL and 0.616 nM	B4

Target: T1, human CCR8
Experiment: cell-based or functional assay
Remark: another data set of the same source

residual hCCL1 (100 nM) Gi2 response, protocol #2, mAb 0.08 µg/mL [%]	residual hCCL1 (100 nM) Gi2 response, protocol #2, mAb 0.4 µg/mL [%]	residual hCCL1 (100 nM) Gi2 response, protocol #2, mAb 10 µg/mL [%]	residual hCCL1 (100 nM) Gi2 response, protocol #3, mAb 0.05 µg/mL [%]	residual hCCL1 (100 nM) Gi2 response, protocol #3, mAb 0.5 µg/mL [%]	residual hCCL1 (100 nM) Gi2 response, protocol #3, mAb 5 µg/mL [%]	Binder
99	83	56	116	90	45	B1
104	46	28	80	57	45	B2
–	–	–	102	98	84	B3
97	96	84	96	81	73	B4

Target: T1, human CCR8
Experiment: cell-based or functional assay
Remark: another data set of the same source

extrapolated top plateau of hCCL1 curve with 5 µg/mL mAb, protocol #3	Binder
193000 % of hCCL1 (100 nM)	B1
855 % of hCCL1 (100 nM)	B2
2880 % of hCCL1 (100 nM)	B3
292 % of hCCL1 (100 nM)	B4

Target: T1, human CCR8
Experiment: cell-based or functional assay
Remark: another data set of the same source

IC50 of CCL1-induced hCCR8 Gi2 signaling (BRET), pH 6.5	IC50 of CCL1-induced hCCR8 Gi2 signaling (BRET), pH 7.4	Binder
0.162 µg/ml and 1.08 nM	0.152 µg/ml and 1.01 nM	B4

Target: T1, human CCR8
Experiment: cell-based or functional assay
Remark: another data set of the same source

ADCC % max lysis, HUT78 targets, NK donor 3 [%]	ADCC % max lysis, HUT78 targets, NK donor 4 [%]	ADCC EC50, HUT78 targets, NK donor 3 [pM]	ADCC EC50, HUT78 targets, NK donor 4 [pM]	Binder
14	15	793	1520	B5
29	29	195	282	B6
16	18	291	406	B7
25	30	8.22	48.9	B8

Target: T2, pm3 (Y17 sulfated; Y15 and Y16 not sulfated)
T2 construct: also called sulfated CCR8 N-terminal peptide pm3
T2 sequence (peptide, as listed by the source): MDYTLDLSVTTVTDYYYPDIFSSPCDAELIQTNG
Experiment: ELISA on coated peptide [cont.]
Method: (§1) The specific binding properties of antibodies were evaluated by ELISA with coated CCR8 related peptides (500 ng/ml) in carbonate/bicarbonate buffer. Different peptides were used as described in Table 1 (see Example 1). Each anti-CCR8 mAb was tested at 1 μg/mL then diluted at 1/10. After an incubation at room temperature during 90 min, unbound mAbs were removed by washings. […] After washings, 3,3′,5,5′-tetramethylbenzidine (TMB) (Interchim, Montluçon, France) was added for 15 min. Then the optical density (OD) was determined by using a multiplate reader (Tecan, Lyon, France) and correlated with mAb reactivity on the panel of coated peptides.

binding result	Binder
binds	B2
binds	B3

Target: T3, pm5 (Y15 and Y17 sulfated; Y16 not sulfated)
T3 construct: also called sulfated CCR8 N-terminal peptide pm5
T3 sequence (peptide, as listed by the source): as above
Experiment: ELISA on coated peptide [cont.]
Method: as §1

binding result	Binder
binds	B2
binds	B3

Target: T4, pm6 (Y16 and Y17 sulfated; Y15 not sulfated)
T4 construct: also called sulfated CCR8 N-terminal peptide pm6
T4 sequence (peptide, as listed by the source): as above
Experiment: ELISA on coated peptide [cont.]
Method: as §1

binding result	Binder
binds	B2
binds	B3

Target: T5, pm8 (Y15, Y16 and Y17 sulfated)
T5 construct: also called sulfated CCR8 N-terminal peptide pm8
T5 sequence (peptide, as listed by the source): as above
Experiment: ELISA on coated peptide [cont.]
Method: as §1

binding result	Binder
binds	B2
binds	B3

Target: T1, human CCR8
Experiment: flow cytometry, hCCR8-transfected CHO-K1 cells
Method: Briefly, 1.10⁵ cells per well in a 96 well plate were incubated with a dilution of unconjugated anti-CCR8 mAb at 10 μg/mL then diluted at 1/3.33, 4 dilution points (during 30 min at 4° C.). In human activated T cells model, prior to mAb incubation, cells were first incubated with 200 nM of hCCL1 (R&D Systems, Minneapolis, MN, USA) or buffer PBS (Invitrogen by Thermofisher Scientific, Illkirch-Graffenstaden, France) supplemented by 2% Fetal Bovine Serum (Invitrogen by Thermofisher Scientific, Illkirch-Graffenstaden, France) and 2 mM EDTA (Invitrogen by Thermofisher Scientific, Illkirch-Graffenstaden, France) during 1 hour at 4° C. To determine EC50 value, 8 concentrations of anti-CCR8 mAb were tested. Unbound antibodies were washed away with PBS (Invitrogen by Thermofisher Scientific, Illkirch-Graffenstaden, France) supplemented by 2% Fetal Bovine Serum (Invitrogen by Thermofisher Scientific, Illkirch-Graffenstaden, France) and 2 mM EDTA (Invitrogen by Thermofisher Scientific, Illkirch-Graffenstaden, France). Subsequently, cells are centrifuged (5 min at 400 g) and bound antibody is detected with F(ab′)2-Goat anti-Mouse IgG (H+L) Cross-Adsorbed Secondary Antibody, Alexa Fluor 488 (dilution 1/500) (Invitrogen by Thermofisher Scientific, Illkirch-Graffenstaden, France) or with F(ab′)₂-Goat anti-Human IgG Fc Secondary Antibody, PE (Invitrogen by Thermofisher Scientific, Illkirch-Graffenstaden, France) (dilution 1/1000) at 4° C. for 30 min. Detection reagent is washed away and cells are centrifuged (5 min at 400 g) and resuspended in 30 μL PBS. Bound detection antibody is quantified on a MacsQuant16 (Miltenyi, Gladbach, Germany) (B1 or B2 channel, 5000 events per acquisition). During the experiment, the respective isotype mAb controls (mouse IgG1, mouse IgG2a, mouse IgG2b, mouse IgG3 or human IgG1) (Biolegend, Amsterdam, The Netherlands) are included to exclude any unspecific binding events. EC50 values were determined via nonlinear fit “log (agonist) vs.response—Variable slope (four parameters)” function of Graphpad prism. EC50 values were not constantly determined in the same experiments.

% positive cells [%]	MFI fold change to isotype ctrl [fold]	Binder
81.6	9.92	B1
56.2	4.78	B2
76.2	8.37	B3
34.7	2.34	B4

Target: T1, human CCR8
Experiment: flow cytometry, inhibition of hCCL1-AF647 (10 nM) binding to hCCR8-CHO cells
Method: The hCCR8 transfected CHO cell line was dispatched at a density of 1.105 per well in a 96-well plate. Cells were incubated for 30 min at 4° C. with or without anti-CCR8 mAb tested at 10 μg/mL then diluted at 1/3. Unbound antibodies were washed away with PBS (Gibco, Villebon-sur-yvette, France) supplemented by 2% Fetal Bovine Serum (Invitrogen by Thermofisher Scientific, Illkirch-Graffenstaden, France) and 2 mM EDTA. […] After washing unbound ligands, CCL1 bound detection is quantified on a MacsQuant16 (Miltenyi, Gladbach, Germany) (R1 channel, 5 000 events per acquisition).
For IC₅₀ determination, a concentration response curve is performed using 8 concentrations of mAb. Curves are fitted and IC₅₀ of CCL1 binding blocking activity is calculated using the sigmoidal dose-response (variable slope) model on GraphPad Prism 9 (GraphPad Software, San Diego, CA, USA).

IC50	Binder
1.18 µg/mL and 7.92 nM	B1
~0.6 µg/mL and 4.01 nM	B2
0.72 µg/mL and 4.82 nM	B3
6.41 µg/mL and 43 nM	B4

From patent US20260132208A1 (DOMAIN THERAPEUTICS, published 2026)
